Experimental data from the nanobody polyreactivity screen of Harvey et al. (2022).

Test: yeast display, Sf9 membrane polyspecificity reagent, FACS + sequencing; frameworks hold sequencing errors
Outline: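 Sorting gates, low and high (top ~1%), were placed on anti-HA fluorescence to track expression and on streptavidin fluorescence to track reagent binding. A clone's polyreactivity label is taken from the gate it came out of. The reagent was 10% biotinylated, detergent-solubilized Sf9 membrane, applied for 1 hour at 4 °C to galactose-induced yeast display cells.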

Row | Sequence | polyreactivity (PSR sort gate)
1 | QDQLVESGGGLVQAGGSLRLSCAASGRTFVAYAMGWSRQAPGKERELVARISSGGSTYYADSVKGRFTISRDNAKNTVYLQMNSLKPEDTAVYYCAADRGPYFVPWRRYDYWGQGTQVTVSS | low polyreactivity
2 | QVQLVESGGGLVQAGGSLRLSCAASGNTFTWYTIGWYRQAPGKERELVAVITSDGSTYYADSVKGRFTISRDNAKNTVYLQMNSLKPEDTAVYYCNALSADWYPEVDYWGQGTQVTVSS | low polyreactivity
3 | QVQLVESGGGLVQAGGSLRLSCAASGSIFNINAMGWYRHAPGKERELVAVITSRDGRTYYADSVKGRFTISRDNAKNTVYLQMNSLKPEDTAVYYCAADVVNRHYYFWGQGTQVTVSS | low polyreactivity
4 | QVQLVESGGGLVQAGGSLRLSCAASGSIFDGYAMGWYSQAPGKEREFVASIRFSTGRTYYADSVKGRFTISRDNAKNTVYFQMNSLKPEDTAVYYCNAPQGFVWRYSSWGPYDYWGQGTQVTVSS | high polyreactivity
5 | QVQLVESGGGLVQAGGSLRLSCAASGFTFLINAMGWYRQAPGKERELVAAIRSGGSTNYADSVKGRFTISRDNAKNTVYLQMNSLKPEDTAVYYCAARRYYPYKYRYGYWGQGTQVTVSS | high polyreactivity
6 | QVQLVESGGGLVQAGGSLRLSCAASGRTFGSNAMGWYRQAPGKERELVAAISSSDSTNYADSVKGRFTISRDNAKNTVYLQMNSLKPEDTAVYYCNAGHPVRSPGYDYWGQGTQVTVSS | low polyreactivity
7 | QVQLVESGGGLVQAGGSLRLSCAASGSIYITYAMGWYRQAPGKERELVAAIRDSGDRTYYADSVKGRFTISRDNAKNTVYLQMNSLKPEDTAVYYCNARWQEPLKYDYWGQGTQVTVSS | low polyreactivity
8 | QVQLVESGGGLVQAGGSLRLSCAASGLTFYGYTMGWSRQAPGKERELVAAISWSGGNTYYADSVKGRFTISRDNEKNTVYLQMNSLKPEDTAVYYCAAEHWTYDWVDYWGQGTQVTVSS | low polyreactivity
9 | QVQLVESGGGLVQAGGSLRLSCAASGLNFKLYAMGWYRQAPGKEREFVATITGIGGSTYYADSVKGRFTISRDNAKNTVYLQMNSLKPEVTAVYYCAGDAWFLPYNYWGQGTQVTVSS | low polyreactivity
10 | QVQLVESGGGLVQAGGSLRLSCAASGLTFYGNAMGWYRQAPGKERELVAAISSSGGTTYYADSVKGRFTISRDNAKNTVYLQMNSLKPEDTAVYYYWGQGTQVTVSS | low polyreactivity
11 | QVQLVESGGGLVQAGGSLRLSCAASGFTFYYNAMGWYRQAPGKERELVAIRFRGGNTYYADSVKGRFTISRDNAKNTVYLQMNSLKPEDTAVYYCNADDRGSTYVEFDYWGQGTQVTVSS | low polyreactivity
12 | QVQLVESGGGLVQAGGSLRLSCAASGRIFVYNTMGWYRQAPGKERELVAVISIGGSTKYADSVKGRFTISRDNAKNTVYLQMNSLKPEDTAVYYCNTDLAGLVYIAVDYWGQGTQVTVSS | low polyreactivity
13 | QVQLVESGGGLVQAAASLRLSCAAYGITFNSYVMGWSRQAPGKERELVAVISRGGGITYYADSVKGRFTISRDNAKNTVYLQMNSLKPEDTAVYYCAADHTHVYVLYYNDNYWGQGTQVTVSS | high polyreactivity
14 | PLQLVESGGGLVQAGGSLRLSCAASGRIFGTYAMGWYRQAPGKERELVAAITLSDGSTYYADSVKGRFTISRDNAKNTVYLEMNSLIPDDTAVYYCAAVVDRFHPGLYEYWGQGTQVTVSS | low polyreactivity
15 | QVQLVESGGGLVQAGGSLRLSCAASGGILGVNAMGWYRQAPGKERELVAAISGRGGRTYYADSVKGRSTISRDNAKNTVYLQLNSLKPEDTAVYYCAVEFYSVARFPLWSYYWGQGTQVTVSS | high polyreactivity
16 | QVQLVESGGGLVQAGGSLRLSCAASGSTFAVYAMGWYRQPPGKERELVAAITWSGGSTYYADSVKGRFTISRDNAKNTVYLQMNSLKPEDTAVYYCAAVVVRFIYVYFEFEWGQGTQVTVSS | low polyreactivity
17 | QVQLVESGGGLVEAGGSLRLICAASGFIFLSNGMGWYRQGPGKERELVAAISSSGGSTYYADSVKGRFTISRDNAKNTVYLQMNSLKPEDTAVYYCAAEQYSVYETGSYDYWGQGTQVTVSS | low polyreactivity
18 | QVQLVESGGGLVQAGGSLRLSCAASGRTLVYYAMGWYRQAPGKERELVAAITWRGGRTYYADSVKGRFTISRDNAKNTVYLQMNSLKPEDTAVYYCAKDGGHTGDYWGQGTQVTVSS | low polyreactivity
19 | QVQLVESGGGLVQAGGSLRLSCAASGFIFYKYAMGWYRQAPGKERELVAAISKRGGSTYYADSVKGRFTISRDNAKNTVYLQMNSLKPEDNAVYYCATVGGNSGTVRYFASDYWGQGTKVTVSS | high polyreactivity
20 | QVQLVESGGGLDQAGGSLRLSCAASGSIFDSYVMGWYRQAPGKERDLVAAFSRGGSTYYADSVKGRFTISRDNAQNTVYLQINSLKPEDTSVYYCAAGYRVHSPDDCYWGQGTQVTVSS | low polyreactivity
21 | QVQLVESGGGLLQAGGSLRLSCAASGSIFRRNAMGWYRQAPGKERELVAAIRRGGSTNYADSVKGRFTISRDNAKNTVYLQMNSLKPEDTAVYYCAARGGSSGFYYWGQGTQVTVSS | high polyreactivity
22 | QVQLVESGGGLVQAGGSLRLSCAASGRIFGPYAMGWYRQAPGTERELVAAIRASSSSTYYADSVKGRFTISRDNAKNTVYLQMNSLKPEDTAVYYCAADWYYGYAWKYGYWGQGTQVTVSS | low polyreactivity

Row | Sequence | polyreactivity (PSR sort gate)
23 | QVQLVESGGGIVQAGGSLRLSCAASGSTFNYYAMGWYRQAPGKERELVAAISISGGSTYYADSVKGRFTISRDNAKNTVYLQMNSLKPEDTAVYYCAAVPYGFVGYDDYWGQGTQVTVSS | low polyreactivity
24 | QVQLVESGGGLVQAGGSLRLSCAASVLTFVDYAMGWYRQAPGKERELVAAITSSGGSITYYADSVKGRFTISRDNAKNTVYLQMNSLKPEDTAVYYCNADYGIYTDSFRGQDYESWGQGTQVTVSS | low polyreactivity
25 | QVQLLESGGGLVQAGGSLRLSCAASGLIFRSYAMGWYRQAPGKERELVARISIRGGSTYYADSVKGRFTISRDNAKNTVYLQMNCLKPEDTAVYYCAAVGYFGGYRYDYWGQGTQVTVSS | high polyreactivity
26 | QVQLVESGGGLVQAGGSLRLSCAASGSNFSRNTMGWYRQAPWKERELVAGISSSGSRTYYADSVKGRFTISRDNAKNTVYLLMNSLKPEDTAVYYCAAEHQRSRGRRYYIGYDYWGQGTQVTVSS | low polyreactivity
27 | QVQLVESGGGLVQAGGSLRLSCAASGFTFWYYDMGWYRQAPGKERELVAAISRSGTSTYYADSVKGRFTISRDNAKNTVYLQMNSLKPEDTAVYYCNKVRNTRSYDYWGQGTQVTVSS | high polyreactivity
28 | QVQLVESGGGLVQAGGSLRLSCAASGSTFRYYAMGWYRQAPGKERELVAVISTSGNTYYADSVKGRFTISRDNAKNTVYFQMNSLKPEDTAVYYCAARGVGGQISQEYDYWGQGTQVTVSS | low polyreactivity
29 | QVQLVESGGGLVQAGGSLRLSCAASGRTFYIYAMGWYRQAPGKLRQLVAVIRGSGGSTYYADSVKGRFTISRDNAKYTVYLQMNSQKPEDTAVYYCAARRYQYVWSLYNYWGQGTQVTVSS | high polyreactivity
30 | QVQLVESGGGLVQAGGSLRLSCAASGITFGWYAMGWYRPAPGKERELVAAISWSGGTTYYADSVKGRFTISRDNAKNTVYLQMNSLKPEDTAVYYCAATWYYPTVYAGNYWGQGTQVTVSS | high polyreactivity
31 | QVQLEESGGGLVQAGGSLRLSCAASGRTFLEYVMGWYRQAPGKERELVAVISWSTGSTYADSVKGRFTISRDNAKNTVYLQMNSLKPEDTAVYYCARRVQSLGNVVIYNYWGQGTQVTVSS | low polyreactivity
32 | QVQHVESGGGLVQAGGSLRLSCAASGSIFRYYVMGWYSQAPGKERELGAAISSGGRTYYADSVKGRFTISRDNAKNTVYLQMNSLKPEDTAVYYCNAQGLFYWEMDYWGQGTQVTVSS | high polyreactivity
33 | QVQLVESGGGLVQAGGSLRLSCAASGSTTYYAMGWYRQAPGKERELVAAISYSGGSTFYADSVKGRFRISRDNAKNTVYLQMNSLKPEDTAVYYCAADLGFPFDYWGQGTKVTVSS | low polyreactivity
34 | QVQLQESGGGPVLAGGSLRLSCAASGTIFVRLDMGWYRQAPGKEREFVATIGSASSTYYADSVKGSFTISRDNVKNTVYLQMNSLKPEDTAVYYCAVSAAEQSRHYYWDQGTQVTVSS | low polyreactivity
35 | QVQIVESGGGLVQAGGSLRLSCAASGRTFYFYVMGWYRQAPGKERELVAAISWSGTSTYYADSVKGRFTISRDNAKNTVYLQMNSLKPEDTAVYYCNGITRYDYWGQGTQVTVSS | low polyreactivity
36 | KVQLVETGGGLVQAGGSLRLSCAASGRTFWGYAKGWYRQAPGKEREFVAAISCGGRTNYADSVKGRFTISRDNAKNTVYLQLNSLKPEDSAVYYCATVSGYGYYYWGQGTQVTVSS | low polyreactivity
37 | QVQLVESGGGLVQAGGSLRLSCAASGSTFAWYAMGWYRQAPGKERELVAAISSTVGSTYYADSVKGRFTISRDNAKNTVYLQLKSLKPEDTAVYYCARYYYRYYIRQLALGASTYDYWGQGTQVTVSS | high polyreactivity
38 | QVHLVESGGGLVQAGGSLRLSCAASGRTFDVYAMGWYRQAPGKERELVATITDSGGNTYYADSVKGRFTISRDNAKNTVYLQMNSLKPEDTAVYYCAADRIYPYYRWSGAHRSDVDYWGQGTQVTVSS | low polyreactivity
39 | QVQLVESGGGLVQAGGSLRLSCAASGITFFRYAMGWYRQAPGKERELVAAITTSGSSTFYADSVKGRFTISRDNAKNTVYLLMNSLKPEDTAVYYCAAVFRWARLYEYDYWGQGTQVTVSS | high polyreactivity
40 | QVQLVESGGGLFQAGGSLRLTCAASGITFYYYAMGWYRQAPGKERELVAAISVRGTRTFYADCVKWRFTISRDNAKNTVYLQMNSLKPEDTEVYYCNKSVSNDDGLEYWGQGTQVTVSS | high polyreactivity
41 | QVQLVESGGGLVQAGGSLRLSCAASGRIFVQYDMGWYRQAPGKERELVAAITGGGGSTYYADSVKGRFTISRDNAKNTVYLQMHSLKPEDTAVYYCAADQDVYDFTGYDYWGQGTQVTVSS | low polyreactivity
42 | QVQLVDSGGGLVQAGGSLRLSCAASGLTFYYYAMGWYRQAPGKESELVSAISATGGRTYYSDSVKGRFTISRDNAKNTVYLQMNSLKPEDTAVYYCAADTPYLRRRLGMDYWGQGTQVTVSS | high polyreactivity
43 | QVQLVESGGGLVKAGGSLRLSCAASGFTFWRNTMGWYRQAPGKERELVAAIDRSGSSTYYADSVKGRFTISRDNATNNVYFQMNSLKPEDTAVYYCAADHTYFTAYGDYWGQGTQVTVSS | low polyreactivity
